Test results from article PMC12368520.
Where a chain is given by its changes, count along the chain named. Numbers in names are those of the source. Each block holds one binder with its values, some of them ahead of it.

Columns and labels:
[1] = target: Sb44, synthetic nanobody (sybody) against TGP; experiment: SEC; TGP (or Cys mutant) and sybody (or mutant) mixed 1:3 on ice for 20 min; Superdex 200 Increase 10/300 GL; 150 mM NaCl, 20 mM HEPES pH 7.5; absorbance at 493 nm and 280 nm
Sb44 V100C [2] = experiment: SDS-PAGE (non-reducing); individually purified proteins; Laemmli sample buffer without DTT; 12% gel; Coomassie and in-gel fluorescence; shows disulfide-linked species
Sb44 V100C [3] = experiment: SEC; TGP (or Cys mutant) and sybody (or mutant) mixed 1:3 on ice for 20 min; Superdex 200 Increase 10/300 GL; 150 mM NaCl, 20 mM HEPES pH 7.5; absorbance at 493 nm and 280 nm

stoichiometry N [1]: 2
B1: Sb44, synthetic nanobody (sybody) against TGP (VHH)
VHH: QVQLVESGGGLVQAGGSLRLSCAASGFPVGRASMWWYRQAPGKEREWVAAISSYGWVTAYADSVKGRFTISRDNAKNTVYLQMNSLKPEDTAVYYCEVSVGTGYRGQGTQVTVSA

stoichiometry N (Sb44 V100C [2]): 2
stoichiometry N (Sb44 V100C [3]): 2
B2: Sb44 V100C (VHH)
VHH: B1 VHH with V100C
